Laboratory results taken from IntAct's records for PubMed 23956175.

B1: Protein disulfide isomerase Creld2 (Mus musculus), Q9CYA0 (parent)
chain: MHLLLAAAFGLLLLLPPPGAVASRKPTMCQRCRTLVDKFNQGMANTARKNFGGGNTAWEEKTLSKYEFSEIRLLEIMEGLCDSSDFECNQLLEQQEEQLEAWWQTLKKEHPNLFEWFCVHTLKACCLPGTYGPDCQECQGGSERPCSGNGYCSGDGSRQGDGSCQCHTGYKGPLCIDCTDGFFSLQRNETHSICSACDESCKTCSGPSNKDCIQCEVGWARVEDACVDVDECAAETSPCSDGQYCENVNGSYTCEDCDSTCVGCTGKGPANCKECIAGYTKESGQCTDIDECSLEEKACKRKNENCYNVPGSFVCVCPEGFEETEDACVQTAEGKVTEENPTQPPSREDL
partner: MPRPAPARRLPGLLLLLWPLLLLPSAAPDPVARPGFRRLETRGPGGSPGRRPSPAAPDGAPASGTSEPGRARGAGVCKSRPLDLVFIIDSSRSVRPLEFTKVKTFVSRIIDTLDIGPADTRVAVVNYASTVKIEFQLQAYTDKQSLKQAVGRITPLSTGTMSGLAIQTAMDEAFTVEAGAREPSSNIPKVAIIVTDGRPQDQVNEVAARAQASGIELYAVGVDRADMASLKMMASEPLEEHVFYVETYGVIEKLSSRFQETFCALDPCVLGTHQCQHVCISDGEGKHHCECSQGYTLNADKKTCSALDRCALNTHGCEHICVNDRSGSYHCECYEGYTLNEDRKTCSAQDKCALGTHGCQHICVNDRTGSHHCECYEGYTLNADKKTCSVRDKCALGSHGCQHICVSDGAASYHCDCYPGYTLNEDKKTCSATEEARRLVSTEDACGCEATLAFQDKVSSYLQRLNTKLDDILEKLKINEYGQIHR

Variants of: B1
Conditions: with matn3_human MATN3, O15232

effect of a mutation on the interaction | Variant
causing an interaction | MHLLLAAAFGLLLLLPPPGAVASRKPTMCQRARTLVDKFNQGMANTARKNFGGGNTAWEEKTLSKYEFSEIRLLEIMEGLCDSSDFECNQLLEQQEEQLEAWWQTLKKEHPNLFEWFCVHTLKACCLPGTYGPDCQECQGGSERPCSGNGYCSGDGSRQGDGSCQCHTGYKGPLCIDCTDGFFSLQRNETHSICSACDESCKTCSGPSNKDCIQCEVGWARVEDACVDVDECAAETSPCSDGQYCENVNGSYTCEDCDSTCVGCTGKGPANCKECIAGYTKESGQCTDIDECSLEEKACKRKNENCYNVPGSFVCVCPEGFEETEDACVQTAEGKVTEENPTQPPSREDL [C32A]
